# From IntAct's records for PubMed 16837009
# B1: Serine/threonine-protein kinase PAK 2 (Homo sapiens), Q13177 (parent)
# chain: MSDNGELEDKPPAPPVRMSSTIFSTGGKDPLSANHSLKPLPSVPEEKKPRHKIISIFSGTEKGSKKKEKERPEISPPSDFEHTIHVGFDAVTGEFTGMPEQWARLLQTSNITKLEQKKNPQAVLDVLKFYDSNTVKQKYLSFTPPEKDGFPSGTPALNAKGTEAPAVVTEEEDDDEETAPPVIAPRPDHTKSIYTRSVIDPVPAPVGDSHVDGAAKSLDKQKKKTKMTDEEIMEKLRTIVSIGDPKKKYTRYEKIGQGASGTVFTATDVALGQEVAIKQINLQKQPKKELIINEILVMKELKNPNIVNFLDSYLVGDELFVVMEYLAGGSLTDVVTETCMDEAQIAAVCRECLQALEFLHANQVIHRDIKSDNVLLGMEGSVKLTDFGFCAQITPEQSKRSTMVGTPYWMAPEVVTRKAYGPKVDIWSLGIMAIEMVEGEPPYLNENPLRALYLIATNGTPELQNPEKLSPIFRDFLNRCLEMDVEKRGSAKELLQHPFLKLAKPLSSLTPLIMAAKEAMKSNR
# Variants of: B1
# Conditions: with limk1_human LIMK1, P53667
# Chain of limk1_human LIMK1, P53667 (P53667 whole entry, looked up): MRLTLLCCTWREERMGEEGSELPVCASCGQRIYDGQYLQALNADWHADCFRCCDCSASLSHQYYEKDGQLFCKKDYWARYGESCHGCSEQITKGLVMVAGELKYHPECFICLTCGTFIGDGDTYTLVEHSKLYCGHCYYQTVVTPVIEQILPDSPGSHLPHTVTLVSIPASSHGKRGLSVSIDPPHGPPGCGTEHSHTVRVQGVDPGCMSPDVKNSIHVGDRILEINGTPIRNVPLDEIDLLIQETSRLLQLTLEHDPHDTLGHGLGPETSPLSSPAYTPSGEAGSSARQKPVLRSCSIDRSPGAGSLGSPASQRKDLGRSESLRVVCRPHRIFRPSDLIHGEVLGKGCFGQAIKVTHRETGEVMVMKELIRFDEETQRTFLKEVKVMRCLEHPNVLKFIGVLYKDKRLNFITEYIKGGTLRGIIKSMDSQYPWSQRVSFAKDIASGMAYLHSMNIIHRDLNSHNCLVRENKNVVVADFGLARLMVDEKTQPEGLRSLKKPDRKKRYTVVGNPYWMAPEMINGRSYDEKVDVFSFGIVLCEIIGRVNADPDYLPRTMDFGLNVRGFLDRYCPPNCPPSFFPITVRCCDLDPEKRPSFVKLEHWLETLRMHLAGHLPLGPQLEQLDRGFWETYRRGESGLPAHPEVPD
row,effect of a mutation on the interaction,Variant
1,increasing interaction,L449Q
